B1: MBP-hIRE1b_LD_(35-428)-AviTag-His7 (domain or fragment, human, UniProt Q76MJ5 35-428, looked up)
chain: LRPENLLLVSTLDGSLHALSKQTGDLKWTLRDDPVIEGPMYVTEMAFLSDPADGSLYILGTQKQQGLMKLPFTIPELVHASPCRSSDGVFYTGRKQDAWFVVDPESGETQMTLTTEGPSTPRLYIGRTQYTVTMHDPRAPALRWNTTYRRYSAPPMDGSPGKYMSHLASCGMGLLLTVDPGSGTVLWTQDLGVPVMGVYTWHQDGLRQLPHLTLARDTLHFLALRWGHIRLPASGPRDTATLFSTLDTQLLMTLYVGKDETGFYVSKALVHTGVALVPRGLTLAPADGPTTDEVTLQVSGEREGSPSTAVRYPSGSVALPSQWLLIGHHELPPVLHTTMLRVHPTLGSGTAETRPPENTQAPAFFLELLSLSREKLWDSELHPEEKTPDSYLGL
modifications: biotin on the AviTag (endogenous biotinylation of a fraction of the protein in E. coli)
notes: IRE1β (ERN2) luminal domain, human, residues 35-428; No step that cleaves MBP is described; also called IRE1β LD; IRE1β LD probe; source: T7 Express lysY/Iq E. coli, purified (Ni-NTA, amylose resin, two gel filtrations); not shown: AviTag, C-terminal, kept
B2: MBP-hIRE1β LD-mGL-AviTag-His (domain or fragment, human, UniProt Q76MJ5 35-428, looked up)
chain: B1 chain
notes: IRE1β (ERN2) luminal domain, human; C-terminal mGL inserted in the MBP-hIRE1bLD of UK2796 (residues 35-428); also called GFP-tagged IRE1β LD; IRE1β LD-mGL acceptor; source: T7 Express lysY/Iq E. coli, purified (Ni-NTA, amylose resin, two gel filtrations); not shown: MBP, N-terminal, kept; mGL (monomeric Green Lantern), C-terminal, kept
B3: mouse AGR2 (21-175) C81E (natural protein, UniProt O88312 21-175, looked up)
chain: KDTTVKSGAKKDPKDSRPKLPQTLSRGWGDQLIWTQTYEEALYRSKTSNRPLMVIHHLDEEPHSQALKKVFAEHKEIQKLAEQFVLLNLVYETTDKHLSPDGQYVPRIVFVDPSLTVRADITGRYSNRLYAYEPSDTALLYDNMKKALKLLKTEL
notes: AGR2, mouse, residues 21-175, active site mutant C81E; also called AGR2 C81E; UK2835; source: T7 Express lysY/Iq E. coli, purified (Ni-NTA, SENP2 cleavage, reverse Ni-NTA); not shown: His6, N-terminal, cleaved; SUMO3, N-terminal, cleaved
B4: mouse AGR2 (21-175) C81S (natural protein, UniProt O88312 21-175, looked up)
chain: B3 chain with E61S
notes: AGR2, mouse, residues 21-175, active site mutant C81S; also called AGR2 C81S; UK2795; source: T7 Express lysY/Iq E. coli, purified (Ni-NTA, SENP2 cleavage, reverse Ni-NTA); not shown: His6, N-terminal, cleaved; SUMO3, N-terminal, cleaved

Data set [1] deals with MBP-hIRE1β LD ∆C-mGL-AviTag-His (human) (UniProt Q76MJ5). As to the kind of experiment: mass photometry (ISCAT); IRE1β LD wt or ∆C alone at the indicated concentrations; HK buffer, room temperature (~21 °C).
The next data set concerns the target AGR2 (Homo sapiens) (UniProt O95994). The conditions noted are these: cited from earlier work.
The target in another data set is T1, mouse AGR2 (21-175) C81S (mouse, UniProt O88312 21-175, C81S).
T1 sequence: B3 chain with E61S
The experiment in a line: BLI; K1/2 max from steady-state one-site fit. (In general: In BLI a coated tip is dipped into the sample, and binding shifts an interference pattern.)

Another data set concerns the target T2, mouse AGR2 (21-175) C81E (mouse, UniProt O88312 21-175, C81E).
T2 sequence: B3 chain
As to the kind of experiment: BLI; K1/2 max from steady-state one-site fit.

The target of data set [2] is T3, MBP-hIRE1bLD (35-428)-NanoLuc-H6 (human, UniProt Q76MJ5 35-428).
T3 construct: IRE1β (ERN2) luminal domain, human, residues 35-428; No step that cleaves MBP is described; also called IRE1β-nluc donor; IRE1β LD-nanoluc; source: T7 Express lysY/Iq E. coli, purified (Ni-NTA, amylose resin, two gel filtrations); not shown: NanoLuc (complete, WT), C-terminal, kept
T3 sequence (looked up): B1 chain
The experiment in a line: FRET or BRET; kinetic readings: AGR2 variants or unlabelled IRE1β LD competitor added to the pre-formed IRE1β LD-nanoluc / IRE1β LD-mGL BRET pair; BRET ratio every 20 s, one-phase exponential decay. The following applies: both partners purified. A general note: BRET reads energy transfer from a luciferase to a nearby fluorophore.

Data set [3] concerns the molecule itself. The experiment in a line: mass photometry (ISCAT); IRE1β LD wt or ∆C alone at the indicated concentrations; HK buffer, room temperature (~21 °C).
The target in data set [4] is B1. As to the kind of experiment: BLI; biotinylated IRE1 LD loaded on streptavidin sensors, exposed sequentially to increasing concentrations of AGR2; 30 °C; HK buffer (50 mM HEPES-KOH pH 7.4, 150 mM KCl) with 0.05% Triton X-100 and 1 mM TCEP; signal against AGR2 concentration fitted to a one-site specific binding function (the methods call the result a KD of binding). The conditions noted are these: both partners purified.

Residue numbers refer to the chain shown, from its start. Numbers in names are those of the source.

Turning to “MBP-hIRE1β LD ∆C-mGL-AviTag-His (from UniProt Q76MJ5 35-428) (domain or fragment)”, the stoichiometry N (usually a count of units in the complex or per binding partner) in data set [1] is 2.
With AGR2 (from UniProt O95994), in the data set with AGR2 (Homo sapiens), the Kd (commonly the constant that tells how readily two partners part at equilibrium) is 8 µM.
On to B1, for which the Kd in the data set with mouse AGR2 (21-175) C81S turned out to be 124 µM; in the data set with mouse AGR2 (21-175) C81E it was 78.5 µM. Also, in data set [2], the binding result is listed as “binds”.
B2: the “stoichiometry N” value in data set [3] stood at 2.
Take B3: the binding result in data set [4] was “binds”.
Same read-out and setting: for B4 the value was “binds”.

Source of the values: PMC10907699, “The IRE1β-mediated unfolded protein response is repressed by the chaperone AGR2 in mucin producing cells” (The EMBO Journal, 2023).
